# Measurements: patent US20230374153A1 (PARADIGM IMMUNOTERAPEUTICS, published 2023)
# Positions count from the first letter of the chain named. Like-named read-outs stand apart in the source and are kept apart here.
# B1: ACE2 LVE IgG Fc STR chimeric antibody (LiVE) (Fc fusion)
# chain: QSTIEEQAKLFLDKFNVEAEDLFYQSSLASWNYNTNITEENVQNMNNAGDKWSAFLKEQSTLAQMYPLQEIQELTVKLQLQALQQNGSSVLSEDKSKRLNTILNTMSTIYSTGKVCNPDNPQECLLLEPGLNEIMANSLDYNERLWAWESWRSEVGKQLRPLYEEYVVLKNEMARANHYEDYGDYWRGDYEVNGVDGYDYSRGQLIEDVEHTFEEIKPLYEHLHAYVRAKLMNAYPSYISPIGCLPAHLLGDMWGRFWTNLYSLTVPFGQKPNIDVTDAMVDQAWDAQRIFKEAEKFFVSVGLPNMTQGFWENSMLTDPGNVQKAVCHPTAWDLGKGDFRILMCTKVTMDDFLTAHHEMGHIQYDMAYAAQPFLLRNGANEGFHEAVGEIMSLSAATPKHLKSIGLLSPDFQEDNETEINFLLKQALTIVGTLPFTYMLEKWRWMVFKGEIPKDQWMKKWWEMKREIVGVVEPVPHDETYCDPASLFHVSNDYSFIRYYTRTLYQFQFQEALCQAAKHEGPLHKCDISNSTEAGQKLFNMLRLGKSEPWTLALENVVGAKNMNVRPLLNYFEPLFTWLKDQNKNSFVGWSTDWSPYADQSIKVRISLKSALGDKAYEWNDNEMYLFRSSVAYAMRQYFLKVKNQMILFGEEDVRVANLKPRISFNFFVTAPKNVSDIIPRTEVEKAIRMSRSRINDAFRLNDNSLEFLGIQPTLGPPNQPPVSGGGGSGGGGSDKTHTCPPCPAPESTRGPSVFLFPPKPKDTLMISRTPEVTCVVVDVSHEDPEVKFNWYVDGVEVHNAKTKPREEQYNSTYRVVSVLTVLHQDWLNGKEYKCKVSNKALPAPIEKTISKAKGQPREPQVYTLPPSRDELTKNQVSLTCLVKGFYPSDIAVEWESNGQPENNYKTTPPVLDSDGSFFLYSKLTVDKSRWQQGNVFSCSVMHEALHNHYTQKSLSLSPGK
# B2: ACE2 LVE IgG Fc STR YTE chimeric antibody (LiVE Longer) (Fc fusion)
# chain: B1 chain with M765Y, S767T, T769E
# Legend:
# [1] = biological target: T1, SARS-CoV-2 Spike Trimer, His Tag B.1.1.529/Omicron (ACRO Biosystems Cat. No. SPN-052Hz) (SARS-CoV-2, UniProt P0DTC2 16-1213)
# [2] = biological target: T1, SARS-CoV-2 Spike Trimer, His Tag …; remark: listed apart in the source
# [3] = biological target: SARS-CoV-2 Omicron BA.5 (live virus; spike protein) (SARS-CoV-2, UniProt P0DTC2 14-1273); assay: cell-based or functional assay
# [4] = biological target: T2, SARS-CoV-2 (COVID-19) S protein RBD, His Tag B.1.1.529/Omicron (ACRO Biosystems Cat. No. SPD-052H3) (SARS-CoV-2, UniProt P0DTC2 319-537); assay: SPR (Biacore T200, ACRO Biosystems), 1:1 model
# T2 construct: domain: RBD; also called Omicron RBD only; Omicron variant RBD
# [5] = biological target: T3, SARS-CoV-2 Delta variant B.1.617.2, RBD only (SARS-CoV-2, UniProt P0DTC2 319-537); assay: SPR (Biacore T200, ACRO Biosystems), 1:1 model
# T3 construct: domain: RBD; also called RBD of the Delta B.1.617.2 variant
# [6] = biological target: T1, SARS-CoV-2 Spike Trimer, His Tag …; assay: SPR (Biacore T200, ACRO Biosystems), 1:1 model
# [7] = biological target: T1, SARS-CoV-2 Spike Trimer, His Tag …; remark: listed apart in the source
# [8] = biological target: SARS-CoV-2 Omicron BA4.6 spike protein trimer (SARS-CoV-2, UniProt P0DTC2 16-1213); assay: SPR (Biacore 8K, ACRO Biosystems), 1:1 model
# [9] = biological target: SARS-CoV-2 Omicron BQ.1.1 spike protein trimer (SARS-CoV-2, UniProt P0DTC2 16-1213); assay: SPR (Biacore 8K, ACRO Biosystems), 1:1 model
# [10] = biological target: SARS-CoV-2 Omicron XBB.1 spike protein trimer (SARS-CoV-2, UniProt P0DTC2 16-1213); assay: SPR (Biacore 8K, ACRO Biosystems), 1:1 model
# [11] = biological target: T4, SARS-CoV-2 Omicron BA.2.75 spike protein trimer (SARS-CoV-2, UniProt P0DTC2 16-1213); assay: SPR (Biacore T200, ACRO Biosystems), 1:1 model
# T4 construct: also called Omicron subvariant BA2.75 spike trimer
# [12] = biological target: SARS-CoV-2 Omicron BA.5 spike protein trimer (SARS-CoV-2, UniProt P0DTC2 16-1213); assay: SPR (Biacore T200, ACRO Biosystems), 1:1 model
Binder,Kd [1] [nM],Kd [2] [nM],koff [2] [s⁻¹],kon [2] [M⁻¹ s⁻¹],IC50 of inhibition of viral replication (human airway organoids) [3] [µg/mL],Kd [4] [nM],Kd [5] [nM],Kd [6] [nM],koff [7] [s⁻¹],kon [7] [M⁻¹ s⁻¹],Kd [8] [nM],Kd [9] [nM],Kd [10] [nM],Kd [11] [nM],Kd [12] [nM]
B1,0.114,0.144,0.000153,1.06e+06,0.0299,0.308,0.554,0.144,–,–,–,–,–,–,–
B2,0.0734,–,–,–,0.0269,0.402,–,0.073,0.000117,1.59e+06,0.845,0.00181,0.215,0.000133,0.00543
